Source: patent publication US20220073608A1 (JIANGSU HUAIYU PHARMACEUTICAL, published 2022)
Numbering of substitutions follows the chain as printed.

T1: human SEMA4D, full length, on CHO-K1 cells (CHO-K1 hSEMA4D) (human, UniProt Q92854 22-862)
T1 construct: whole, on cells; also called human SEMA4D recombinant cells
T1 sequence (looked up): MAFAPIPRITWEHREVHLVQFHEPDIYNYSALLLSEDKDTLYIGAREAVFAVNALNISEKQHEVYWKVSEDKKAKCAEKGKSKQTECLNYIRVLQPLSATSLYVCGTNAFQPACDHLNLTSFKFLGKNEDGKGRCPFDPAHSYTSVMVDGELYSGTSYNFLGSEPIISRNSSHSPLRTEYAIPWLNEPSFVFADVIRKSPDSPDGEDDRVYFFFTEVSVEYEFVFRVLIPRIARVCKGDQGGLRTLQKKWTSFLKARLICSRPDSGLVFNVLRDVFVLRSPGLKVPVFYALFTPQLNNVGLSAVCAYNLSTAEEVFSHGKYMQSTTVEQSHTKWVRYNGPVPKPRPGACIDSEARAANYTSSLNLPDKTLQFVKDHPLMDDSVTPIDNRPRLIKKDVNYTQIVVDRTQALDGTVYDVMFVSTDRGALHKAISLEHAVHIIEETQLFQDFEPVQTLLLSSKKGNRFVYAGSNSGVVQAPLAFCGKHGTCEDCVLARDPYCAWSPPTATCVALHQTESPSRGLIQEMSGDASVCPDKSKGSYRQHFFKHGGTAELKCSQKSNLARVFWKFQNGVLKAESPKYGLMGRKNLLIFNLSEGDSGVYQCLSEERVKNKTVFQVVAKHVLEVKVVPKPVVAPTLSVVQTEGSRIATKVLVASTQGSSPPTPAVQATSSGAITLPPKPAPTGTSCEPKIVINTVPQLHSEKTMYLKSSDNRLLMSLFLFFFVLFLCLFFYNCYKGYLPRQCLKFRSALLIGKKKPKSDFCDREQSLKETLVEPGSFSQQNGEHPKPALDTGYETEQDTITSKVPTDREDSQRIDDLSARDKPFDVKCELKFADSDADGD

T2: mouse SEMA4D, full length, on CHO-K1 cells (CHO-K1 mSEMA4D) (mouse, UniProt O09126 24-861)
T2 construct: whole, on cells; also called murine SEMA4D recombinant cells
T2 sequence (looked up): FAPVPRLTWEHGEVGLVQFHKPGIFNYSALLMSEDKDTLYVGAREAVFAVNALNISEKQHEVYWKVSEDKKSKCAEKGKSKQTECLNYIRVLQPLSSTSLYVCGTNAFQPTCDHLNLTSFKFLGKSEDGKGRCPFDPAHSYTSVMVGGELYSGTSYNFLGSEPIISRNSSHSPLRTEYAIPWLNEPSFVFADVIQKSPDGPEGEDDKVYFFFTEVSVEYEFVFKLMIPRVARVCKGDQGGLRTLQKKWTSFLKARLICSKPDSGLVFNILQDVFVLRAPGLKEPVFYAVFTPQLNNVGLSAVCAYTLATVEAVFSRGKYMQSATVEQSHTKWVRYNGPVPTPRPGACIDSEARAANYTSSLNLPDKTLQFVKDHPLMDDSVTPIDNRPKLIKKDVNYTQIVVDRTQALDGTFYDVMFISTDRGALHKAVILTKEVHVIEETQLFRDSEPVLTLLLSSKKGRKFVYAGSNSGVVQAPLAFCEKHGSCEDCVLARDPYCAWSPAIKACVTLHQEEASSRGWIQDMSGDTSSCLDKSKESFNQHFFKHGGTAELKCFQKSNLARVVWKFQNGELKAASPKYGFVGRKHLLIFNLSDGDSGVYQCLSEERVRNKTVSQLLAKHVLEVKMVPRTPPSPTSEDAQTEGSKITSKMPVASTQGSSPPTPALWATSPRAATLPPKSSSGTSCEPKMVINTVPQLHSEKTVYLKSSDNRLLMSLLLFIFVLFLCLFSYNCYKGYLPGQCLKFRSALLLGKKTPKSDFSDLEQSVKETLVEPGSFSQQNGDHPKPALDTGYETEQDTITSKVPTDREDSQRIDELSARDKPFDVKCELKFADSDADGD

B1: 32C8F10 (antibody, V domains shown)
VH: EVQLQQSGAELVRPGASVKLSCTASGFNIKDEYIHWVKQRPEQGLEWIGWIDPANGHTEYASRFQAKATITADTSSNTAYLQLSSLTSEDTAVYYCTTGDYDGFAYWGQGTLVTVST
VL: QIVLTQSPAIMSASPGEKVTISCSARSSVSYMYWYQQKPGSSPKPWIYRTSNLASGVPARFSGSGSGTSYSLTISSMEAEDAATYYCQHYHTYPYTFGGGTKLEIK
notes: Mouse monoclonal antibody purified from hybridoma supernatant on protein A
B2: 31C11G2 (antibody, V domains shown)
VH: B1 VH with A105V
VL: B1 VL with S22F
notes: as for B1
B3: 31G10C5 (antibody, V domains shown)
VH: B1 VH with E32D, T58I, R63N, A105T
VL: B1 VL
notes: as for B1
B4: 37C4F7 (antibody, V domains shown)
VH: EFQLQQSGPEVVKPGASVKISCKASGYSFTDYNMNWMKQSKGKSLEWIGVINPNYGTTTYNQNFKGKATLTVDQSSSTAYMQLNSLTSEDSAVYYCARDMYYVYAYYTMDYWGQGTSVTVSS
VL: DVVMTQTPLSLPVSLGDQASISCRSSQSLVHSNGHTYLHWYLQRPGQSPTLLIYKVSNRFSGVPDRFSGSGSGTDFTLKISRVEAEDLGVYFCSQGTHVPWTFGGGTKLEIK
notes: as for B1
B5: 38H2E3 (antibody, V domains shown)
VH: B4 VH with N52S, N54D, G66D, R98K, Q114H
VL: B4 VL with F67V, W101R
notes: as for B1
B6: 37F11F9 (antibody, V domains shown)
VH: EVQLQQSGPVLVKPGASVKMSCKASGYTFTDYYMNWVKQSHGKSLEWIGLINPYSGGSTFNQKFKAKATLTVDKSSSSAYMDLNSLTSEDSAVYYCARVGDGYYGVTHGMDYWGQGTSVTVSS
VL: DIVMTPSQKFMSTTVGDRVSITCKASQNVGTAVAWYQQKPGQSPTILIYSASNRYTGVPDRFTGSGSGTDFTLTISNMKSEDLADYFCQQYYIYPFTFAAGTKLELK
notes: as for B1
B7: 42B7G2 (antibody, V domains shown)
VH: QVQLQQSGAELARPGASVKLSCKASGYTFTDYGISWVKQRTGQGLEWIGEIYLRNDNSYYNEKFKGKATLTADKSSNTAYMELRSLTSEDSAVYFCARWGDHGNNYEDAMDYWGQGTSVTVSS
VL: DIVLTQSPASLAMSLGKRATISCRASESVSIIGSNLIHWYQQKPGQPPKLLIYHASNLETGVPARFSGSGSRTDFTLTIDPVEEDDVAIYYCLQSRKVPYTFGGGTKLEIK
notes: as for B1

The binders below were run against T1, human SEMA4D, full length, on CHO-K1 … (assay: FACS, CHO-K1 hSEMA4D cells; Ab 0.0213 nM).
Experimental: (§1) The medium was aspirated, the cells were washed once with PBS buffer (purchased from Invitrogen), and then treated with cell dissociation fluid (TrypLE™ Express Enzyme, purchased from Life technology), and the cells were collected. After the cells counted, the cells were washed once with PBS phosphate buffer, and diluted to 3×10⁶ cells per milliliter, and added to the 96-well FACS reaction plate as 100 μL per well. 2% (w/w) fetal calf serum was added to PBS phosphate buffer as FACS buffer, with which the cells were washed once by centrifugation at 2000 rpm 4° C. 100 μL of diluted and purified leading antibodies was added to each well and the plate was incubated for 1 hour on ice. […] Cells were washed 2 times by centrifugation with FACS buffer. The cells were suspended with 200 μL of FACS buffer, and FACS (FACS Verse, purchased from BD) was used to detect and analyze the results.
B1 gave an MFI of 218.
Work on B2 yielded an MFI of 248.
Work on B3 yielded an MFI of 225.
For B4, the MFI was 76.6.
Binder B5 has an MFI of 78.7.
B6 showed an MFI of 101.
In the case of B7, the MFI is reported as 173.

What follows are binders tested against T3, monkey SEMA4D, full length, on CHO-K1 cells (CHO-K1 cSEMA4D) (monkey) (assay: FACS, CHO-K1 cSEMA4D cells; Ab 66.7 nM).
T3 construct: whole, on cells; also called monkey SEMA4D recombinant cells
Experimental: (§2) After the cells were counted, they were diluted with PBS to 2×10⁶ cells per milliliter. After washing, 100 μL of diluted and purified leading antibodies was added to each well and the plate was incubated for 1 hour on ice. […] Cells were washed 2 times by centrifugation with FACS buffer. The cells were suspended with 200 μL of FACS buffer, FACS (FACS Verse, purchased from BD) was used to detect and analyze the results.
B1 was tested, and the MFI was 5780.
Binder B2 has an MFI of 4370.
B3 was tested, and the MFI was 4600.
Work on B4 yielded an MFI of 2900.
B5 showed an MFI of 2890.
In the case of B6, the MFI is reported as 2520.
With B7 the MFI was 2670.

Each binder was assayed against T2, mouse SEMA4D, full length, on CHO-K1 … (assay: FACS, CHO-K1 mSEMA4D cells; Ab 2.67 nM).
Experimental: as §2
Work on B1 yielded an MFI of 30.7.
B2 showed an MFI of 30.5.
With B3 the MFI was 30.1.
Binder B4 has an MFI of 30.
In the case of B5, the MFI is reported as 30.7.
B6 was tested, and the MFI was 30.6.
B7 showed an MFI of 31.

These binders were tested against T1, human SEMA4D, full length, on CHO-K1 … (assay: FACS, CHO-K1 hSEMA4D cells; Ab 66.7 nM).
Experimental: as §1
B1 was tested, and the MFI was 8760.
For B2, the MFI was 6750.
B3 showed an MFI of 7410.
B4 showed an MFI of 4740.
Binder B5 has an MFI of 5470.
In the case of B6, the MFI is reported as 4110.
For B7, the MFI was 4120.

The binders below were run against T2, mouse SEMA4D, full length, on CHO-K1 … (assay: FACS, CHO-K1 mSEMA4D cells; Ab 66.7 nM).
Experimental: as §2
B1 gave an MFI of 31.7.
For B2, the MFI was 31.4.
In the case of B3, the MFI is reported as 32.4.
B4 showed an MFI of 30.
For B5, the MFI was 30.
B6 was tested, and the MFI was 31.
Work on B7 yielded an MFI of 35.3.

These binders were tested against T1, human SEMA4D, full length, on CHO-K1 … (assay: FACS, CHO-K1 hSEMA4D cells; Ab 0.534 nM).
Experimental: as §1
For B1, the MFI was 2920.
B2 gave an MFI of 3140.
With B3 the MFI was 3070.
With B4 the MFI was 738.
B5 was tested, and the MFI was 763.
B6 showed an MFI of 1120.
Binder B7 has an MFI of 2000.
